Read-outs that look alike come from different tables or passages of the source. One block for each binder: values may come before it.
What was measured:
CD16a-F ECD-Fc = CD16a-F ECD-Fc (human); assay: ELISA
CD16b-NA2 ECD [1] = target: T1, CD16b-NA2 ECD (human); assay: ELISA
T1 chain: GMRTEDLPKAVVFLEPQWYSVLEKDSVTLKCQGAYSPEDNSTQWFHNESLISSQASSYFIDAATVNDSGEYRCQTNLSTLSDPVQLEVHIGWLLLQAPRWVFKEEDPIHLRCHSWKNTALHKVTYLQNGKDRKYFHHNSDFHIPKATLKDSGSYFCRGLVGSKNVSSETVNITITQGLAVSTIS

CD16a-F ECD [2] = target: CD16a-F ECD (human); assay: ELISA
CD16b-NA1 ECD [3] = target: T2, CD16b-NA1 ECD (human); assay: ELISA
T2 chain: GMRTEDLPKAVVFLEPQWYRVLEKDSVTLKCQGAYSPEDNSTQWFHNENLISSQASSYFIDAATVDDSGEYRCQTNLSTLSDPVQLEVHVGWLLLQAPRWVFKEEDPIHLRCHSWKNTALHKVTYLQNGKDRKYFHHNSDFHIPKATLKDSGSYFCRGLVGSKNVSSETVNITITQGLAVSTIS

CD16a-V ECD [4] = target: CD16a-V ECD (human); assay: ELISA
CD16a-F ECD [5] = target: CD16a-F ECD (human); assay: ELISA, + 10 mg/ml hIgG
CD16a-V ECD [6] = target: CD16a-V ECD (human); assay: ELISA, + 10 mg/ml hIgG
[7] = target: CD16a-F ECD deglycosylated (human); assay: ELISA
CD16b-NA2 ECD [8] = target: T1, CD16b-NA2 ECD; assay: ELISA
CD16b-NA2 ECD [9] = target: T1, CD16b-NA2 ECD; assay: BLI, 30C
CD16a-V ECD [10] = target: CD16a-V ECD (human); assay: BLI, 30C
Mouse FcgRIV = target: T3, Mouse FcgRIV (mouse, UniProt A0A0B4J1G0); assay: BLI, 30C
T3 chain: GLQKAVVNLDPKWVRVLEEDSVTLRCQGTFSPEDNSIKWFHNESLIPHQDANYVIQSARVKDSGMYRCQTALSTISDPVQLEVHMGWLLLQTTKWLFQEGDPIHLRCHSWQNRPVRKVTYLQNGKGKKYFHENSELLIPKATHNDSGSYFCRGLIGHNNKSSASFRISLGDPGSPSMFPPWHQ

CD16b-NA2 ECD [11] = target: T1, CD16b-NA2 ECD; assay: ELISA
CD16b on neutrophils = target: T4, CD16b on neutrophils (human, UniProt O75015); assay: FACS, neutrophils
T4 chain: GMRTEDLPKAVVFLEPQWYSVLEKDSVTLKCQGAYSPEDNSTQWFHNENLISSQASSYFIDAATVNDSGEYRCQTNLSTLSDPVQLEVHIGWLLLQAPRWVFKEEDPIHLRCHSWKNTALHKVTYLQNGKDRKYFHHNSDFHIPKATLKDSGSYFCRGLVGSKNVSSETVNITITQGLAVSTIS

Cyno CD16a ECD = target: T5, Cyno CD16a ECD (cynomolgus); assay: BLI, 30C
T5 chain: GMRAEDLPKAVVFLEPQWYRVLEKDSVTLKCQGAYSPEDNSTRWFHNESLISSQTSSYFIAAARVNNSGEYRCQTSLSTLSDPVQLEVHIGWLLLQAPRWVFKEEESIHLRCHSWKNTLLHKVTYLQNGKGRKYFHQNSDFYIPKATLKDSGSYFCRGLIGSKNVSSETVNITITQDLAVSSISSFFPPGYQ

CD16a-F ECD [12] = target: CD16a-F ECD (human); assay: ELISA; remark: listed apart in the source
CD16b-NA1 ECD [13] = target: T2, CD16b-NA1 ECD; assay: ELISA
CD16a-V ECD [14] = target: CD16a-V ECD (human); assay: ELISA; remark: listed apart in the source
[15] = target: T6, CD16b-NA1 ECD deglycosylated (human); assay: ELISA
T6 chain: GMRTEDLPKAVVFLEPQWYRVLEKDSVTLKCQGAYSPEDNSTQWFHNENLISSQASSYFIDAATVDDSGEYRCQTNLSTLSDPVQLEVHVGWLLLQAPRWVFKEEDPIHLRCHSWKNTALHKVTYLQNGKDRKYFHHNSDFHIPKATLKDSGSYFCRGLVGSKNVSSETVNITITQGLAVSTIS

CD16a-V ECD [16] = target: CD16a-V ECD (human); assay: ELISA; remark: listed apart in the source
CD16a-F ECD [17] = target: CD16a-F ECD (human); assay: BLI, 30C
CD16a-F D82N = CD16a-F D82N (human); assay: FACS
CD16a-F D82N (human), sequence (chain, as listed by the source D82N): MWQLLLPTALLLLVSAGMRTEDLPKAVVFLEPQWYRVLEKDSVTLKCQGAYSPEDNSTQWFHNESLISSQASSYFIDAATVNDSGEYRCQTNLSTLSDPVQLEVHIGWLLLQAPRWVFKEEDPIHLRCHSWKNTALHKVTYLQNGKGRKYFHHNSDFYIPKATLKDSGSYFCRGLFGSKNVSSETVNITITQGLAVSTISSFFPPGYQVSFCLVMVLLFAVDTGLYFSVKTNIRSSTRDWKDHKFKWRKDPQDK

CD16a-F ECD [18] = target: CD16a-F ECD (human); assay: ELISA; remark: listed apart in the source
CD16b-NA1 ECD [19] = target: T2, CD16b-NA1 ECD; assay: BLI, 30C
[20] = target: CD16a-V ECD deglycosylated (human); assay: ELISA
[21] = target: T7, CD16b-NA2 ECD deglycosylated (human); assay: ELISA
T7 chain: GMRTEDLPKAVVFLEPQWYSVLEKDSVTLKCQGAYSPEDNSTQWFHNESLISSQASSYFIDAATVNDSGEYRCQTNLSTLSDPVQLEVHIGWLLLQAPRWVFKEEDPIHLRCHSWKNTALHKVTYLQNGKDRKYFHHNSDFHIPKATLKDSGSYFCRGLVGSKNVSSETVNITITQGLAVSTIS

Kd (CD16a-F ECD-Fc): 0.11 nM
Kd (CD16b-NA2 ECD [1]): 546 nM
Kd (CD16a-F ECD [2]): 0.048 nM
Kd (CD16b-NA1 ECD [3]): > 1000 nM
Kd (CD16a-V ECD [4]): 0.051 nM
Kd (CD16a-F ECD [5]): 0.74 nM
Kd (CD16a-V ECD [6]): 0.53 nM
B1: #3A2 IgG1 (antibody)
chain 1: QLQLQESGPGLVKPSETLSLTCTVSGGSIGRGDYYWGWIRQPPGKGLEWIGTIDYSGRTYYNPSLKSRVTISVDTSKNQFSLKLSSVTAADTAVYYCARAFPGEYFGVFDHWGQGTLVTVSS
chain 2: EIVLTQSPGTLSLSPGERATLSCRASQSVSSSYLAWYQQKPGQAPRLLIYDATSRATGIPDRFSGSGSGTDFTLTISRLEPEDFAVYYCQQYDSSSLITFGQGTKVEIK

Kd (CD16a-F ECD-Fc): 0.13 nM
Kd (CD16b-NA2 ECD [1]): 298 nM
Kd (CD16a-F ECD [2]): 0.14 nM
Kd (CD16b-NA1 ECD [3]): 1300 nM
Kd (CD16a-V ECD [4]): 0.16 nM
Kd (CD16a-F ECD [5]): 0.67 nM
Kd (CD16a-V ECD [6]): 0.61 nM
B2: #6A2 IgG1 (antibody)
chain 1: QLQLQESGPGLVKPSETLSLTCTVSGGSIGRGDYYWGWIRQPPGKGLEWIGTIDYSGRTYYNPSLKSRVTISVDTSKNQFSLKLSSVTAADTAVYYCARAFPGEYFGVFDHWGQGTLVTVSS
chain 2: not shown

Kd (CD16a-F ECD-Fc): 0.1 nM
Kd [7]: 1 nM
Kd (CD16b-NA2 ECD [8]): ~200 nM
Kd (CD16b-NA2 ECD [9]): 214 nM
Kd (CD16a-V ECD [10]): 6.6 nM
binding result (Mouse FcgRIV): no binding
Kd (CD16b-NA2 ECD [11]): 239 nM
binding result (CD16b on neutrophils): no binding
binding result (Cyno CD16a ECD): no binding
Kd (CD16a-F ECD [12]): 0.98 nM
Kd (CD16b-NA1 ECD [13]): 73 nM
Kd (CD16a-V ECD [14]): 0.85 nM
Kd [15]: 11.2 nM
Kd (CD16a-V ECD [16]): 0.4 nM
Kd (CD16a-F ECD [17]): 18 nM
binding result (CD16a-F D82N): no binding
Kd (CD16a-F ECD [18]): 0.28 nM
binding result (CD16b-NA1 ECD [19]): no binding
Kd [20]: 0.53 nM
Kd [21]: 1 nM
B3: #55 IgG1 (antibody)
chain 1: EVQLLESGGGLVQPGGSLRLSCAASGFTFSNYAMSWVRQAPGKGLEWVSAISGGGSYTYYADSVKGRFTISRDNSKNTLYLQMNSLRAEDTAVYYCARTYLRRWYYFDYWGQGTLVTVSS
chain 2: DIQMTQSPSSLSASVGDRVTITCRASQTITSYLNWYQQKPGKAPKLLIYAASSLQSGVPSRFSGSGSGTDFTLTISSLQPEDFATYYCQQSYTSPVTFGQGTKVEIK

Reference: US20260308258 (published 2026)
